Data from paper PMC10292035.

Biological target: E. cloacae Cap2 C109A/C548A (catalytically dead), untagged (Enterobacter cloacae)
Experiment: cryo-EM structure

E. cloacae Cap2 C109A/C548A (catalytically dead), untagged (enzyme)
stoichiometry N: 2
